To fix the notation:
B1: anti-Gc (ectodomain) 변이체 Fab 클론 Gc-3-1E12 (Fab, V domains shown)
VH: EVQLVESGGGLVQPGGSLRLSCAASGFTFSDYAMHWVRQAPGKGLEWVSGISSSGGSTFYADSVKGRFTISRDNSKNTLYLQMNSLRAEDTAVYYCAKWEWGYQERKWAFDLWGQGTLVTVSS
VL: DIQMTQSPSSLSASVGDRVTITCRASQSISNYLNWYQQKPGKAPKLLIYATSSLQSGVPSRFSGSGSGTDFTLTISSLQPEDFATYYCQQTYSFPWTFGQGTKVEIK
B2: anti-Gc (ectodomain) 변이체 Fab 클론 Gc-4-1C8 (Fab, V domains shown)
VH: EVQLVESGGGLVQPGGSLRLSCAASGFTFSDYAMNWVRQAPGKGLEWVSSISSSGSSTYYADSVKGRFTISRDNSKNTLYLQMNSLRAEDTAVYYCAKVKWRQSTSEYFDYWGQGTLVTVSS
VL: DIQMTQSPSSLSASVGDRVTITCRASQTISNYLNWYQQKPGKAPKLLIYAASTLQSGVPSRFSGSGSGTDFTLTISSLQPEDFATYYCQQSYSFPWTFGQGTKVEIK
B3: anti-Gc (ectodomain) 변이체 Fab 클론 Gc-b3-1E2 (Fab, V domains shown)
VH: EVQLVESGGGLVQPGGSLRLSCAASGFTFSNYAMNWVRQAPGKGLEWVSAISGSGSSTYYADSVKGRFTISRDNSKNTLYLQMNSLRAEDTAVYYCAKQFYVGQWLSGWFDVWGQGTLVTVSS
VL: DIQMTQSPSSLSASVGDRVTITCRASQSISNYLNWYQQKPGKAPKLLIYATSRLQSGVPSRFSGSGSGTDFTLTISSLQPEDFATYYCQQSYSFPWTFGQGTKVEIK

This assay concerns the target SFTSV Gc 변이체 (Severe Fever with Thrombocytopenia Syndrome Virus).
The EC50 is the concentration that produces a half-maximal response. Molecule B1 displayed an EC50 of 6 nM. Then B2, with 157 nM; and B3, with 89 nM.
